In patent US20200071416A1 (ASTUTE MEDICAL, published 2020):

T1: TIMP-2 region 145NHRYQMGCECKI156 (human)
T1 construct: This exact peptide was not itself the assayed species
T1 peptide: NHRYQMGCECKI

T2: TIMP-2 region 132PWDTLSTTQKK142 (human)
T2 construct: This exact peptide was not itself the assayed species
T2 peptide: PWDTLSTTQKK

B1: antibody 40H2-40K3 (antibody, V domains shown)
VH: QSLEESGGDLVKPEGSLTLTCTASGFTISSNYYMCWVRQAPGKGLEWVACILGGSGTYTYYATWAKGRFTISKTSSTTVTLQMPSLTAADTATYFCARQAPADTYLYGGYGPFNLWGQGTLVTVSS
VL: DIVMTQTPSSVEAAVGGTVTIKCQASESISGWLAWYQQKPGQPPKLLIYRASTLESGVPSRFKGSGSGTEFTLTISDLECADAATYYCQCSYGINGNSEHGNPFGGGTEVVVKR
B2: antibody 6E2.1 (antibody, V domains shown)
VH: QVQLQQSGPQLVRPGASVKISCKASGYSFTSYWMHWVKQRPGQGLEWIGVIDPSDSETRLNQKFKDKATLTVDKSSSTAYMQLNSPTSEDSAVYYCARRDYGSRYDAMDYWGQGTSVTVSS
VL: DIQMTQSSSYLSVSLGGRVTITCKASDHINNWLAWYQQKPGNAPRLLISGATSLETGVPSRFSGSGSGKDYTLSITSLQTEDVATYYCQQYWSTPFTFGSGTKLEIK
notes: Both are partial: a leader, the variable domain and only the start of the constant region

Key:
[1] = biological target: T1, TIMP-2 region 145NHRYQMGCECKI156; assay: Pepscan ELISA on linear 15-mer TIMP-2 peptides
Method: (§1) Synthetic linear peptides were synthesized and screened as described by Slootstra et al. (Slootstra et al., 1996, Mol. Diversity 1, 87-96) and Timmerman et al. (Timmerman et al., 2007, J, Mol Recognit 20, 283-299). The binding of antibody to each peptide was tested in a PEPSCAN-based enzyme-linked immuno assay (ELISA). The covalently linked peptides were incubated with sample (for example 1 μg/mL antibody diluted in a PBS solution containing 5% horse serum (vol/vol) and 4% ovalbumin (weight/vol)) and 1% Tween 80 at 4° C. overnight. After washing, the peptides were incubated with Goat-anti-Rabbit HRP (Jackson Immunoresearch) for 1 hour at 25° C., and subsequently, after washing the peroxidase substrate 2,2′-azino-di-3-ethylbenzthiazoline sulfonate (ABTS) and […] 3% H₂O₂ were added. After 1 hour the color development was measured.

[2] = biological target: T2, TIMP-2 region 132PWDTLSTTQKK142; assay: Pepscan ELISA on linear 15-mer TIMP-2 peptides
Method: as §1

Row | Binder | binding result [1] | binding result [2]
1 | B1 | binds | –
2 | B2 | – | binds
